Results: the emibetuzumab library of Makowski et al. (2022)

B1: VH:VL chains; a variant is named by its letters at X, in order (parent)
chain 1: QVQLVQSGAEVKKPGASVKVSCKASGYTFTDYXMHWVRQAPGQGLEWMGXVNPNXXXTTYNQKFEGRVTMTTDTSTSTAYMELRSLRSDDTAVYYCARXNXLDXWGQGTTVTVSS
chain 2: DIQMTQSPSSLSASVGDRVTITCSVSSSVSSIYLHWYQQKPGKAPKLLIYSTSNLASGVPSRFSGSGSGTDFTLTISSLQPEDFATYYCQVYSGYPLTFGGGTKVEIK

Variants of: B1
Assay: yeast display scFab, FACS + sequencing
In short: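 For the non-specific binding call, a heavy-chain CDR mutant scFab library on the yeast surface was FACS-sorted and samples from two replicates were deep sequenced. Cells were labelled with anti-Myc and either biotinylated ovalbumin (260 μg/mL in PBSB, 3 h, room temperature) or soluble membrane proteins (130 μg/mL, 20 min on ice), with gates on the top 25% and bottom 10% of binders. With membrane protein and ovalbumin samples pooled, a sequence in ≥3 of 4 positive samples and no negatives was scored positive, and the converse rule scored negatives.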

Variant	non-specific binding call
FGATSFSV	binds
FGAKGSSS	binds
VGARNSGV	no binding
VGGRGDGS	no binding
SGAGDYSD	binds
SGEGGAAV	no binding
DGGGASSA	no binding
AGGRGDVD	no binding
VGATSFSA	binds
YGGRGYAV	binds
VGGRADGF	binds
AGGGNDGV	no binding
AGGGNDGA	no binding
VGEKGDGV	no binding
SGGRDSGV	binds
YGGRGSWV	no binding
DGGGNDLV	no binding
DGGRGDGA	no binding
AGGGNDVY	no binding
AGGGNDVV	no binding
VGGGGDGS	no binding
FGAAAVGD	binds
DGGGNDLA chain 1 R87K	no binding

Variant	non-specific binding call
VGGGASGV	no binding
DGGENDVY	no binding
DGGENDVF	no binding
DGEGGDWD	binds
DGGKNDAV	no binding
YGGRADVY	no binding
YGGRGDWV	no binding
DGGGGYWF	binds
SGEGNSWA	no binding
YGGGGASV	binds
FGAKTASF	no binding
YGGRAAGA	binds
AGGGNDWV	no binding
VGGGGAAD	no binding
VGAEGVWS chain 1 G66S	binds
VGGGAAGV	no binding
VGGGAAGF	no binding
DGGRGDAF	no binding
VGGGNAGD	no binding
DGARNAGV	no binding
DGGKNDVV	no binding
VGGKNSVD	no binding
SGETGDSV	no binding

Variant	non-specific binding call
FGGEGDGA	binds
AGEGNSWA	no binding
YGAGDFGA	binds
DGGENAGD	no binding
YGARNAAV	binds
DGGRGDVV	no binding
YGETGDSV	no binding
YGGGGDVV	no binding
YGAKGDGV	no binding
YGGKNSVD	no binding
DGGADVGA	binds
DGGKNSVD	no binding
VGATSVSF	binds
AGGGNSGV	no binding
VGGGADGA	no binding
VGGGADGV	no binding
AGGRSFVF	binds
DGGRAFWF	binds
DGARNSGV	no binding
VGETSYVD	binds
SGEGGAVA	no binding
AGERNVAS	binds
VGEGGDAY	no binding

Variant	non-specific binding call
VGGGADVA	no binding
DGGKNDGS	no binding
DGGKNDGD	no binding
DGGKNDGV	no binding
VGGTDFVA	no binding
YGAAGSAA	binds
SGEEGSGA	binds
SGGKNSVD	no binding
AGETGFSA	binds
SGGGNDLA chain 1 R87K	no binding
DGARGALF	binds
YGGRGAVA	no binding
VGAEDDVA	no binding
AGGENDGD	no binding
SGGRTYGV	binds
DGGRSAVF	no binding
SGEGGAGA	no binding
FGAATDGV	binds
DGGGNVSD	no binding
DGGKNAVV	no binding
DGGKNAVA	no binding
DGGKNAGV	no binding
DGGKNAGD	no binding

Variant	non-specific binding call
VGGGNDLA chain 1 R87K	no binding
AGGGNAGD	no binding
DGERDYSD	binds
YGGRGDAD	no binding
FGGENDGD	no binding
YGARGAAF	binds
DGARNFGV	no binding
DGARNAAA	no binding
FGEEDFSS chain 1 W105R	binds
DGGKGAVD	binds
DGGKNDLA	no binding
YGATSSLA	binds
DGGKNDWV	no binding
DGGEGVVY	binds
FGATSVSF	binds
YGETGFGS	binds
VGGTGDVF	no binding
YGGGGVAA	binds
YGGGGAVA	no binding
DGAKGDGV	no binding
DGERTAGV	no binding
YGETGFWY	binds
